Patent US20200392227A1 (LYVGEN BIOPHARMA, published 2020)
Like-named read-outs stand apart in the source and are kept apart here.

Legend:
Experiment in all cases: BLI
[1] = target: T1, human FcRIIIA-F158 protein (MednaBio, E1036) (human, UniProt P08637 17-208)
T1 construct: Bought; also called FcγRIIIA(F)
Method in brief: (§1)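 On an Octet Red96 System, anti-penta-HIS biosensors loaded with commercial human Fc receptor proteins were dipped into test IgG diluted 1:3 over 8 points from 300 nM. Fcγ receptor runs used pH 7.2 and FcRn runs used pH 6. Global fitting of these biolayer interferometry data gave the values for Kd, kon and koff, using a 1:1 binding model.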

[2] = target: T2, human FcRIIIB protein (MednaBio, E1037) (human, UniProt O75015 17-200)
T2 construct: Bought; also called FcγRIIIB; FcgRIIIB
T2 sequence (O75015 17-200 limits assumed): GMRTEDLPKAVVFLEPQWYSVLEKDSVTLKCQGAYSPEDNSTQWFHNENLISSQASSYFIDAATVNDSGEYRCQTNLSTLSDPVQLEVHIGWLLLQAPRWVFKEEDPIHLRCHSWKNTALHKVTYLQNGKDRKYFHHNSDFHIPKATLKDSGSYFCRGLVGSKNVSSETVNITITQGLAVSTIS
Method in brief: as §1

[3] = target: T1, human FcRIIIA-F158 protein (MednaBio, …); remark: listed apart in the source
Method in brief: as §1

[4] = target: T2, human FcRIIIB protein (MednaBio, E1037); remark: listed apart in the source
Method in brief: as §1

[5] = target: T3, human FcRIIB/C protein (MednaBio, E1034) (human, UniProt P31994 43-217, limits assumed)
T3 construct: Bought as FcRIIB/C; also called FcγRIIB; CD32B
T3 sequence (looked up): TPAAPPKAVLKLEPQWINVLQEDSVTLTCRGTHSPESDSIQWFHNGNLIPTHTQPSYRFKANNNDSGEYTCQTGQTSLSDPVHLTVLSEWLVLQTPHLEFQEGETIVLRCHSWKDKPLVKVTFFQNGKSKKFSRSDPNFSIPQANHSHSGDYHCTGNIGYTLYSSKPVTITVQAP
Method in brief: as §1

[6] = target: T4, human FcRIIIA-V158 protein (MednaBio, E1035) (human, UniProt P08637 17-208)
T4 construct: Bought; also called FcγRIIIA(V); FcgRIIIA(V)
T4 sequence (P08637 17-208 F176V): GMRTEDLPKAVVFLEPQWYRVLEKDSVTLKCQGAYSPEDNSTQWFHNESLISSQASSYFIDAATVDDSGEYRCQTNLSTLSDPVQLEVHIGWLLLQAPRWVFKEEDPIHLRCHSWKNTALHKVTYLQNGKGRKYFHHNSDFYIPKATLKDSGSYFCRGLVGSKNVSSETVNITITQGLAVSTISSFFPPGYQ
Method in brief: as §1

[7] = target: T5, human FcRn protein (MednaBio, E1032) (human, UniProt P55899 24-297; P61769 21-119)
T5 construct: Bought; assays at pH 6
T5 sequence (P55899 24-297 limits assumed, form in doubt, chain 1 of 2): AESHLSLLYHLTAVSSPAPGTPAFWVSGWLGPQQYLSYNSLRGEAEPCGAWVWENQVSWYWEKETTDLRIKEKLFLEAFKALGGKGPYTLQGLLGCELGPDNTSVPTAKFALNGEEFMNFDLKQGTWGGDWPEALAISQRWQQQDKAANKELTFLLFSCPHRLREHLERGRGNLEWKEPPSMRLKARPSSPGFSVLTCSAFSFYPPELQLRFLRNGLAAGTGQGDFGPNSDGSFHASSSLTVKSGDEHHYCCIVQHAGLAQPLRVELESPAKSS
T5 sequence (P61769 21-119 limits assumed, form in doubt, chain 2 of 2): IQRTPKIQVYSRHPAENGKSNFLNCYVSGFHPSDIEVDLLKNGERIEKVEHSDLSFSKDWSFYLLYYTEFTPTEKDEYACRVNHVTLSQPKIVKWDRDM
Method in brief: as §1

[8] = target: T6, human FcRI protein (MednaBio, E1031) (human, UniProt P12314 16-288, limits assumed)
T6 construct: Bought; loaded on anti-penta-HIS biosensors; also called FcγRI
T6 sequence (P12314 16-288 limits assumed): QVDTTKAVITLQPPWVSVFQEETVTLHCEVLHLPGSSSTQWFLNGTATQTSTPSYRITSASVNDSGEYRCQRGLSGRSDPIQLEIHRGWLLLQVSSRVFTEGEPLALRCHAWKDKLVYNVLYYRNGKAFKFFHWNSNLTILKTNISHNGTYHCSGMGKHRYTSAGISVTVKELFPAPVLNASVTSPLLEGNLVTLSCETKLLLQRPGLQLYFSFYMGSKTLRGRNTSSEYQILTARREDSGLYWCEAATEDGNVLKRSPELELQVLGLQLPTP
Method in brief: as §1

[9] = target: T2, human FcRIIIB protein (MednaBio, E1037); remark: listed apart in the source
Method in brief: as §1

[10] = target: T1, human FcRIIIA-F158 protein (MednaBio, …); remark: listed apart in the source
[11] = target: T2, human FcRIIIB protein (MednaBio, E1037); remark: listed apart in the source
[12] = target: T3, human FcRIIB/C protein (MednaBio, E1034); remark: listed apart in the source
[13] = target: T4, human FcRIIIA-V158 protein (MednaBio, …); remark: listed apart in the source
[14] = target: T5, human FcRn protein (MednaBio, E1032); remark: listed apart in the source
[15] = target: T6, human FcRI protein (MednaBio, E1031); remark: listed apart in the source
[16] = target: T7, human FcRIIA protein (MednaBio, E1033) (human, UniProt P12318 34-218, limits assumed)
T7 construct: Bought; also called FcγRIIA
T7 sequence (looked up): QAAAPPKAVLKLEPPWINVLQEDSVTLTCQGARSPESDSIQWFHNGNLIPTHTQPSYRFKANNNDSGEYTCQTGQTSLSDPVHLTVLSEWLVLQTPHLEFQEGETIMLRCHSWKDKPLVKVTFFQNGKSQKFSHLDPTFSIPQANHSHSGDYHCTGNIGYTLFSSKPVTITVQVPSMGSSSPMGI

T1 sequence (P08637 17-208 limits assumed): as the sequence (P08637 17-208 F176V) above, with V160F counted along it

B1: wild-type human IgG1 control (antibody)
heavy: not shown
light: SYELTQPPSVSVSPGQTASITCSGDNIGDQYAHWYQQKPGQSPVLVIYQDKNRPSGIPERFSGSNSGNTATLTISGTQAMDEADYYCATYTGFGSLAVFGGGTKLTVLGQPKAAPSVTLFPPSSEELQANKATLVCLISDFYPGAVTVAWKADSSPVKAGVETTTPSKQSNNKYAASSYLSLTPEQWKSHRSYSCQVTHEGSTVEKTVAPTECS
notes: Control IgG
For B1, the Kd [1] was 120 nM, the koff [1] was 0.02 s⁻¹ and the kon [1] was 170000 M⁻¹ s⁻¹. The Kd [2] was 130 nM, the koff [2] was 0.027 s⁻¹ and the kon [2] was 210000 M⁻¹ s⁻¹. It also gave a Kd [3] of 120 nM, a koff [3] of 0.02 s⁻¹ and a kon [3] of 170000 M⁻¹ s⁻¹. It also gave a Kd [4] of 130 nM, a koff [4] of 0.027 s⁻¹ and a kon [4] of 210000 M⁻¹ s⁻¹. It also gave a Kd [5] of 130 nM, a koff [5] of 0.016 s⁻¹ and a kon [5] of 120000 M⁻¹ s⁻¹. The Kd [6] was 60 nM, the koff [6] was 0.027 s⁻¹ and the kon [6] was 450000 M⁻¹ s⁻¹. It also gave a Kd [7] of 16 nM, a koff [7] of 0.008 s⁻¹ and a kon [7] of 480000 M⁻¹ s⁻¹. The Kd [8] was 5.6 nM, the koff [8] was 0.0012 s⁻¹ and the kon [8] was 220000 M⁻¹ s⁻¹. For the same binder, the Kd [9] was 130 nM, the koff [9] was 0.027 s⁻¹ and the kon [9] was 210000 M⁻¹ s⁻¹. For the same binder, the Kd [10] was 120 nM, the koff [10] was 0.02 s⁻¹ and the kon [10] was 170000 M⁻¹ s⁻¹. For the same binder, the Kd [11] was 130 nM, the koff [11] was 0.027 s⁻¹ and the kon [11] was 210000 M⁻¹ s⁻¹. The Kd [12] was 130 nM, the koff [12] was 0.016 s⁻¹ and the kon [12] was 120000 M⁻¹ s⁻¹. The Kd [13] was 60 nM, the koff [13] was 0.027 s⁻¹ and the kon [13] was 450000 M⁻¹ s⁻¹. The Kd [14] was 16 nM, the koff [14] was 0.008 s⁻¹ and the kon [14] was 480000 M⁻¹ s⁻¹. The Kd [15] was 5.6 nM, the koff [15] was 0.0012 s⁻¹ and the kon [15] was 220000 M⁻¹ s⁻¹. For the same binder, the Kd [16] was 56 nM, the koff [16] was 0.032 s⁻¹ and the kon [16] was 570000 M⁻¹ s⁻¹.

B2: wild-type human IgG4 control (antibody)
heavy: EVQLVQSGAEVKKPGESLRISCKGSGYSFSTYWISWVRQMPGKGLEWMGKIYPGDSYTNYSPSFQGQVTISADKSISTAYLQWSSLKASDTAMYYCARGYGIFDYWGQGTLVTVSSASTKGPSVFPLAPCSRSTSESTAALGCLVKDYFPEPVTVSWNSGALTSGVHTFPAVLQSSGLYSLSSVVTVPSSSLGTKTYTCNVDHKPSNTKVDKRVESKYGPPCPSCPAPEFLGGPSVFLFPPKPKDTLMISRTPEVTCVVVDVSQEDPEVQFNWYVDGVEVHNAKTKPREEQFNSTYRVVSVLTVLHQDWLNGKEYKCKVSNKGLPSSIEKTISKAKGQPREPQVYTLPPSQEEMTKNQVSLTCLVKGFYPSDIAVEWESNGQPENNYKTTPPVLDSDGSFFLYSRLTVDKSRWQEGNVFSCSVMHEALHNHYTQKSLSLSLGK
light: SYELTQPPSVSVSPGQTASITCSGDNIGDQYAHWYQQKPGQSPVLVIYQDKNRPSGIPERFSGSNSGNTATLTISGTQAMDEADYYCATYTGFGSLAVFGGGTKLTVLGQPKAAPSVTLFPPSSEELQANKATLVCLISDFYPGAVTVAWKADSSPVKAGVETTTPSKQSNNKYAASSYLSLTPEQWKSHRSYSCQVTHEGSTVEKTVAPTECS
notes: Control IgG
With B2 the Kd [5] was 400 nM, the koff [5] was 0.05 s⁻¹ and the kon [5] was 140000 M⁻¹ s⁻¹. The Kd [6] was 550 nM, the koff [6] was 0.092 s⁻¹ and the kon [6] was 170000 M⁻¹ s⁻¹. The Kd [7] was 18 nM, the koff [7] was 0.012 s⁻¹ and the kon [7] was 640000 M⁻¹ s⁻¹. For the same binder, the Kd [8] was 4.8 nM, the koff [8] was 0.0017 s⁻¹ and the kon [8] was 360000 M⁻¹ s⁻¹. The Kd [12] was 400 nM, the koff [12] was 0.05 s⁻¹ and the kon [12] was 140000 M⁻¹ s⁻¹. It also gave a Kd [13] of 550 nM, a koff [13] of 0.092 s⁻¹ and a kon [13] of 170000 M⁻¹ s⁻¹. The Kd [14] was 18 nM, the koff [14] was 0.012 s⁻¹ and the kon [14] was 640000 M⁻¹ s⁻¹. For the same binder, the Kd [15] was 4.8 nM, the koff [15] was 0.0017 s⁻¹ and the kon [15] was 360000 M⁻¹ s⁻¹. It also gave a Kd [16] of 400 nM, a koff [16] of 0.055 s⁻¹ and a kon [16] of 140000 M⁻¹ s⁻¹.
